Experimental data from article PMC9482650, “Quantitative fragmentomics allow affinity mapping of interactomes” (Nature Communications, 2022).

biological target: LIMK2, P53671; assay: holdup assay; design: key: below the threshold = too weak to quantify, mostly under pKd 3.1 to 4; conditions: plain residues with an end cap or a label only (N-terminal biotin on a linker: ado-ado)
Sequence (P53671 143-248): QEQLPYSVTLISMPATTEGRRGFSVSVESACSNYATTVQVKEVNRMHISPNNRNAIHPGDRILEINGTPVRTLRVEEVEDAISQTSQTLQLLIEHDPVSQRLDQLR

| Binder | pKd |
| --- | --- |
| KPGKGSETVV [FZD4, Q9ULV1] | below the threshold |
| TGLWKHETTV [ADGRA3, Q8IWK6] | below the threshold |

biological target: LNX1_1, Q8TBB1; assay: holdup assay; design: key: below the threshold = too weak to quantify, mostly under pKd 3.1 to 4; conditions: plain residues with an end cap or a label only (N-terminal biotin on a linker: ado-ado)
Sequence (Q8TBB1 261-371): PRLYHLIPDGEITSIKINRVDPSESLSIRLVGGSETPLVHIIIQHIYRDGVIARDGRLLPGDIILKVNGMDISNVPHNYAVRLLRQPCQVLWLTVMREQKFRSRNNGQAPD

| Binder | pKd |
| --- | --- |
| KPGKGSETVV [FZD4, Q9ULV1] | below the threshold |
| TGLWKHETTV [ADGRA3, Q8IWK6] | 3.78 |

biological target: MAGI2_5, Q86UL8; assay: holdup assay; design: key: below the threshold = too weak to quantify, mostly under pKd 3.1 to 4; conditions: plain residues with an end cap or a label only (N-terminal biotin on a linker: ado-ado)
Sequence (Q86UL8 915-1017): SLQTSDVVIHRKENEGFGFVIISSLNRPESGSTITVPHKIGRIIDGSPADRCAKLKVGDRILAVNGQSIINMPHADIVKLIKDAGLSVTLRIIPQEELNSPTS

| Binder | pKd |
| --- | --- |
| KPGKGSETVV [FZD4, Q9ULV1] | 3.55 |
| TGLWKHETTV [ADGRA3, Q8IWK6] | 4.41 |

biological target: T1, APBA2_2, Q99767; assay: holdup assay; design: key: below the threshold = too weak to quantify, mostly under pKd 3.1 to 4; conditions: plain residues with an end cap or a label only (N-terminal biotin on a linker: ado-ado)
T1 sequence (Q99767 654-744, limits assumed, looked up): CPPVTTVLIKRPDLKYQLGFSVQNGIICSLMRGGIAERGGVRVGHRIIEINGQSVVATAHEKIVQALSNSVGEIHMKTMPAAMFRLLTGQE

| Binder | pKd |
| --- | --- |
| KPGKGSETVV [FZD4, Q9ULV1] | below the threshold |
| TGLWKHETTV [ADGRA3, Q8IWK6] | below the threshold |

biological target: T2, SHANK1, Q9Y566; assay: holdup assay; design: key: below the threshold = too weak to quantify, mostly under pKd 3.1 to 4; conditions: plain residues with an end cap or a label only (N-terminal biotin on a linker: ado-ado)
T2 sequence (Q9Y566 658-767, limits assumed, looked up): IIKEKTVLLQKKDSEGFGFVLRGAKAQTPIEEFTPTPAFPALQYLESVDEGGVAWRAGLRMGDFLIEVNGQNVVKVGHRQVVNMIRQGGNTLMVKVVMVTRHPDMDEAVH

| Binder | pKd |
| --- | --- |
| KPGKGSETVV [FZD4, Q9ULV1] | below the threshold |
| TGLWKHETTV [ADGRA3, Q8IWK6] | below the threshold |

biological target: PTPN3, P26045; assay: holdup assay; design: key: below the threshold = too weak to quantify, mostly under pKd 3.1 to 4; conditions: plain residues with an end cap or a label only (N-terminal biotin on a linker: ado-ado)
Sequence (P26045 505-587): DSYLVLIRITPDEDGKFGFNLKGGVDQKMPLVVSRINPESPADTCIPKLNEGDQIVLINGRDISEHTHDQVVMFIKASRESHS

| Binder | pKd |
| --- | --- |
| KPGKGSETVV [FZD4, Q9ULV1] | 4.13 |
| TGLWKHETTV [ADGRA3, Q8IWK6] | 4.5 |

biological target: T3, PTPN13_1, Q12923; assay: holdup assay; design: key: below the threshold = too weak to quantify, mostly under pKd 3.1 to 4; conditions: plain residues with an end cap or a label only (N-terminal biotin on a linker: ado-ado)
T3 sequence (Q12923 1088-1188, limits assumed, looked up): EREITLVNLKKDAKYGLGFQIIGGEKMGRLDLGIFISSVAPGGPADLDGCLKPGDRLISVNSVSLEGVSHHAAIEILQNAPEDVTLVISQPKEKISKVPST

| Binder | pKd |
| --- | --- |
| KPGKGSETVV [FZD4, Q9ULV1] | below the threshold |
| TGLWKHETTV [ADGRA3, Q8IWK6] | below the threshold |

biological target: DLG1_1, Q12959; assay: holdup assay; design: key: below the threshold = too weak to quantify, mostly under pKd 3.1 to 4; conditions: plain residues with an end cap or a label only (N-terminal biotin on a linker: ado-ado)

| Binder | pKd |
| --- | --- |
| KPGKGSETVV [FZD4, Q9ULV1] | 4.65 |
| TGLWKHETTV [ADGRA3, Q8IWK6] | 5.12 |

biological target: DLG4_3, P78352; assay: holdup assay; design: key: below the threshold = too weak to quantify, mostly under pKd 3.1 to 4; conditions: plain residues with an end cap or a label only (N-terminal biotin on a linker: ado-ado)
Sequence (P78352 306-403): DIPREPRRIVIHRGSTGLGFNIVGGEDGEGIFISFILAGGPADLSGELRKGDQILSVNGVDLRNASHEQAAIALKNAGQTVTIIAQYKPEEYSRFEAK

| Binder | pKd |
| --- | --- |
| KPGKGSETVV [FZD4, Q9ULV1] | 3.79 |
| TGLWKHETTV [ADGRA3, Q8IWK6] | 4.94 |

biological target: T4, HTRA4, P83105; assay: holdup assay; design: key: below the threshold = too weak to quantify, mostly under pKd 3.1 to 4; conditions: plain residues with an end cap or a label only (N-terminal biotin on a linker: ado-ado)
T4 sequence (P83105 378-476, limits assumed, looked up): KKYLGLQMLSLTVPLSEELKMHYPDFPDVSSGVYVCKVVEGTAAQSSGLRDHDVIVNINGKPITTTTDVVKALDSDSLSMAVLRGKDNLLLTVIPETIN

| Binder | pKd |
| --- | --- |
| KPGKGSETVV [FZD4, Q9ULV1] | below the threshold |
| TGLWKHETTV [ADGRA3, Q8IWK6] | 4.15 |

biological target: T5, RAPGEF6, Q8TEU7; assay: holdup assay; design: key: below the threshold = too weak to quantify, mostly under pKd 3.1 to 4; conditions: plain residues with an end cap or a label only (N-terminal biotin on a linker: ado-ado)
T5 sequence (Q8TEU7 525-625, limits assumed, looked up): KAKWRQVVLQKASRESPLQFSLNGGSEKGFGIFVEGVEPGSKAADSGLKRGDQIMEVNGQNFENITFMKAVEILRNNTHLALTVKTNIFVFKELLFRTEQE

| Binder | pKd |
| --- | --- |
| KPGKGSETVV [FZD4, Q9ULV1] | below the threshold |
| TGLWKHETTV [ADGRA3, Q8IWK6] | below the threshold |

biological target: DLG4_2, P78352; assay: holdup assay; design: key: below the threshold = too weak to quantify, mostly under pKd 3.1 to 4; conditions: plain residues with an end cap or a label only (N-terminal biotin on a linker: ado-ado)
Sequence (P78352 155-259): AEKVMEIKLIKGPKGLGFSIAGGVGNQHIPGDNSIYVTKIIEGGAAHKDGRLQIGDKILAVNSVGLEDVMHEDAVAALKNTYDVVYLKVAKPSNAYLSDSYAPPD

| Binder | pKd |
| --- | --- |
| KPGKGSETVV [FZD4, Q9ULV1] | 4.92 |
| TGLWKHETTV [ADGRA3, Q8IWK6] | 5.41 |

biological target: Inadl_1, Q8NI35; assay: holdup assay; design: key: below the threshold = too weak to quantify, mostly under pKd 3.1 to 4; conditions: plain residues with an end cap or a label only (N-terminal biotin on a linker: ado-ado)
Sequence (Q8NI35 113-229): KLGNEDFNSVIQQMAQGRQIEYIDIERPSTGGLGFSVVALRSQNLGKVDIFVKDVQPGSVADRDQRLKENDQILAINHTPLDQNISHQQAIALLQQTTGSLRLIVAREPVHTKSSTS

| Binder | pKd |
| --- | --- |
| KPGKGSETVV [FZD4, Q9ULV1] | below the threshold |
| TGLWKHETTV [ADGRA3, Q8IWK6] | below the threshold |

biological target: T6, APBA3_1, O96018; assay: holdup assay; design: key: below the threshold = too weak to quantify, mostly under pKd 3.1 to 4; conditions: plain residues with an end cap or a label only (N-terminal biotin on a linker: ado-ado)
T6 sequence (O96018 389-490, limits assumed, looked up): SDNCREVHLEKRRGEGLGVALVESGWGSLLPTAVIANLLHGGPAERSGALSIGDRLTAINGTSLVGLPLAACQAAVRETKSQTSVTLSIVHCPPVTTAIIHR

| Binder | pKd |
| --- | --- |
| KPGKGSETVV [FZD4, Q9ULV1] | below the threshold |
| TGLWKHETTV [ADGRA3, Q8IWK6] | below the threshold |

biological target: FRMPD4, Q14CM0; assay: holdup assay; design: key: below the threshold = too weak to quantify, mostly under pKd 3.1 to 4; conditions: plain residues with an end cap or a label only (N-terminal biotin on a linker: ado-ado)
Sequence (Q14CM0 67-160): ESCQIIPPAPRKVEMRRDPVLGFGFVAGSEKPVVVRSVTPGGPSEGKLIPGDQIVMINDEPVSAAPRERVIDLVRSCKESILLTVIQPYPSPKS

| Binder | pKd |
| --- | --- |
| KPGKGSETVV [FZD4, Q9ULV1] | below the threshold |
| TGLWKHETTV [ADGRA3, Q8IWK6] | below the threshold |

biological target: DLG2_2, Q15700; assay: holdup assay; design: key: below the threshold = too weak to quantify, mostly under pKd 3.1 to 4; conditions: plain residues with an end cap or a label only (N-terminal biotin on a linker: ado-ado)
Sequence (Q15700 189-283): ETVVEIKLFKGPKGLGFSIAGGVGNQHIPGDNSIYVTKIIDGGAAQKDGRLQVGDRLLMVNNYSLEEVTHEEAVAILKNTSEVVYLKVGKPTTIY

| Binder | pKd |
| --- | --- |
| KPGKGSETVV [FZD4, Q9ULV1] | 4.87 |
| TGLWKHETTV [ADGRA3, Q8IWK6] | 5.4 |

biological target: Inadl_3, Q8NI35; assay: holdup assay; design: key: below the threshold = too weak to quantify, mostly under pKd 3.1 to 4; conditions: plain residues with an end cap or a label only (N-terminal biotin on a linker: ado-ado)
Sequence (Q8NI35 359-469): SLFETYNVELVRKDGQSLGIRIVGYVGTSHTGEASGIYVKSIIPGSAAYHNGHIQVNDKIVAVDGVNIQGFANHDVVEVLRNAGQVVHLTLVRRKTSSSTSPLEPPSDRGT

| Binder | pKd |
| --- | --- |
| KPGKGSETVV [FZD4, Q9ULV1] | 3.55 |
| TGLWKHETTV [ADGRA3, Q8IWK6] | 3.86 |

biological target: Inadl_9, Q8NI35; assay: holdup assay; design: key: below the threshold = too weak to quantify, mostly under pKd 3.1 to 4; conditions: plain residues with an end cap or a label only (N-terminal biotin on a linker: ado-ado)
Sequence (Q8NI35 1530-1615): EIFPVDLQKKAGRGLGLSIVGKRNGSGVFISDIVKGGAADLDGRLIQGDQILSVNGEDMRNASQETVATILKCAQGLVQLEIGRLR

| Binder | pKd |
| --- | --- |
| KPGKGSETVV [FZD4, Q9ULV1] | below the threshold |
| TGLWKHETTV [ADGRA3, Q8IWK6] | 3.74 |

biological target: T7, LNX2_2, Q8N448; assay: holdup assay; design: key: below the threshold = too weak to quantify, mostly under pKd 3.1 to 4; conditions: plain residues with an end cap or a label only (N-terminal biotin on a linker: ado-ado)
T7 sequence (Q8N448 334-432, limits assumed, looked up): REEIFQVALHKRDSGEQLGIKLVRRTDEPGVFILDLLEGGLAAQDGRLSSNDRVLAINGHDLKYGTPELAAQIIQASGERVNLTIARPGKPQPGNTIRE

| Binder | pKd |
| --- | --- |
| KPGKGSETVV [FZD4, Q9ULV1] | 4.92 |
| TGLWKHETTV [ADGRA3, Q8IWK6] | 4.93 |

biological target: T8, NHERF3_4, Q5T2W1; assay: holdup assay; design: key: below the threshold = too weak to quantify, mostly under pKd 3.1 to 4; conditions: plain residues with an end cap or a label only (N-terminal biotin on a linker: ado-ado)
T8 sequence (Q5T2W1 373-468, limits assumed, looked up): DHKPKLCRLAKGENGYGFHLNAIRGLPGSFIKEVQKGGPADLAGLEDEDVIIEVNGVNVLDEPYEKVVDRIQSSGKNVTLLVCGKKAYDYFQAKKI

| Binder | pKd |
| --- | --- |
| KPGKGSETVV [FZD4, Q9ULV1] | below the threshold |
| TGLWKHETTV [ADGRA3, Q8IWK6] | below the threshold |

biological target: PDZRN4_1, Q6ZMN7; assay: holdup assay; design: key: below the threshold = too weak to quantify, mostly under pKd 3.1 to 4; conditions: plain residues with an end cap or a label only (N-terminal biotin on a linker: ado-ado)
Sequence (Q6ZMN7 213-318): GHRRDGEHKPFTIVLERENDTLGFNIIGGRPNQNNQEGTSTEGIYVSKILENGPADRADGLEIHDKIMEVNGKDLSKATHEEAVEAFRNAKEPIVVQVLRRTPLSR

| Binder | pKd |
| --- | --- |
| KPGKGSETVV [FZD4, Q9ULV1] | 3.51 |
| TGLWKHETTV [ADGRA3, Q8IWK6] | 4.56 |

biological target: MAGI2_6, Q86UL8; assay: holdup assay; design: key: below the threshold = too weak to quantify, mostly under pKd 3.1 to 4; conditions: plain residues with an end cap or a label only (N-terminal biotin on a linker: ado-ado)
Sequence (Q86UL8 1141-1229): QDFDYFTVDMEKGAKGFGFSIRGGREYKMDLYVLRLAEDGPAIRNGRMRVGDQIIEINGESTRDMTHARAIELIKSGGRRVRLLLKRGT

| Binder | pKd |
| --- | --- |
| KPGKGSETVV [FZD4, Q9ULV1] | below the threshold |
| TGLWKHETTV [ADGRA3, Q8IWK6] | 3.86 |

biological target: LNX1_2, Q8TBB1; assay: holdup assay; design: key: below the threshold = too weak to quantify, mostly under pKd 3.1 to 4; conditions: plain residues with an end cap or a label only (N-terminal biotin on a linker: ado-ado)
Sequence (Q8TBB1 371-470): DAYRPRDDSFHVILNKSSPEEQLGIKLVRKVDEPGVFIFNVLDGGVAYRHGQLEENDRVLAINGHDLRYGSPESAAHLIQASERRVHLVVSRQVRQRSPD

| Binder | pKd |
| --- | --- |
| KPGKGSETVV [FZD4, Q9ULV1] | 3.56 |
| TGLWKHETTV [ADGRA3, Q8IWK6] | 3.8 |

biological target: T9, MPDZ_12, O75970; assay: holdup assay; design: key: below the threshold = too weak to quantify, mostly under pKd 3.1 to 4; conditions: plain residues with an end cap or a label only (N-terminal biotin on a linker: ado-ado)
T9 sequence (O75970 1857-1958, limits assumed, looked up): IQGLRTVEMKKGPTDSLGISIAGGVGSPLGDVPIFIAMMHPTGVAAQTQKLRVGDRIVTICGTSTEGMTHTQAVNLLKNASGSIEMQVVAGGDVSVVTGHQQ

| Binder | pKd |
| --- | --- |
| KPGKGSETVV [FZD4, Q9ULV1] | below the threshold |
| TGLWKHETTV [ADGRA3, Q8IWK6] | below the threshold |

biological target: T10, PDZD7_3, Q9H5P4; assay: holdup assay; design: key: below the threshold = too weak to quantify, mostly under pKd 3.1 to 4; conditions: plain residues with an end cap or a label only (N-terminal biotin on a linker: ado-ado)
T10 sequence (Q9H5P4 857-944, limits assumed, looked up): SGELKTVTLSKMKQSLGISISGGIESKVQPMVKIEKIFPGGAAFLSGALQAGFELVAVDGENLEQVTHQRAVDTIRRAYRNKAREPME

| Binder | pKd |
| --- | --- |
| KPGKGSETVV [FZD4, Q9ULV1] | 4.67 |
| TGLWKHETTV [ADGRA3, Q8IWK6] | 4.99 |

biological target: AHNAK1, Q09666; assay: holdup assay; design: key: below the threshold = too weak to quantify, mostly under pKd 3.1 to 4; conditions: plain residues with an end cap or a label only (N-terminal biotin on a linker: ado-ado)
Sequence (Q09666 4-100): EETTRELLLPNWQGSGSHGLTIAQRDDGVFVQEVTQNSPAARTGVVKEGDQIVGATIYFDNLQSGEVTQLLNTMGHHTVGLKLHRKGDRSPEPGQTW

| Binder | pKd |
| --- | --- |
| KPGKGSETVV [FZD4, Q9ULV1] | below the threshold |
| TGLWKHETTV [ADGRA3, Q8IWK6] | below the threshold |

biological target: T11, GRIP1_5, Q9Y3R0; assay: holdup assay; design: key: below the threshold = too weak to quantify, mostly under pKd 3.1 to 4; conditions: plain residues with an end cap or a label only (N-terminal biotin on a linker: ado-ado)
T11 sequence (Q9Y3R0 568-668, limits assumed, looked up): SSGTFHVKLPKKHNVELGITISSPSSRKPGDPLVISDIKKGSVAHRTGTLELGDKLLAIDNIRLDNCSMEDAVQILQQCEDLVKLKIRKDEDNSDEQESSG

| Binder | pKd |
| --- | --- |
| KPGKGSETVV [FZD4, Q9ULV1] | below the threshold |
| TGLWKHETTV [ADGRA3, Q8IWK6] | below the threshold |
